# Data published in patent US20250206839A1, “METHODS, COMPOSITIONS AND USES FOR SEMA7A MONOCLONAL ANTIBODIES” (THE REGENTS OF THE UNIVERSITY OF COLORADO, A BODY CORPORATE, priority 2022, published 2025).
# B1: SmAbH1: mouse monoclonal antibody against SEMA7A generated using the 10-mer immunizing peptide … (SEQ ID NO: 2) (antibody, V domains shown)
# VH: QVKLQESGTVLARPGASVKMSCKASVYSFTSYWMHWVKQRPGQGLEWIGAIYPGNSDTSYNQKFKGKAKLTAVTSASTAYMELSSLTNEDSAVYYCTRGGAPTMITAYYAMDYWGQGTSVTVSS
# VL: DIQMTQTTSSLSASLGDRVTISCRASQDISNYLNWYQQKPDGTVKLLIYYTSRLHSGVPSRFSGSGSGTDYSLTISNLEQEDIATYFCQQGNTLPWTFGGGTKLEIKR
# Assays:
# [1] = tested on: activated T cells in the tumors; experiment: Flow cytometry of immune cells in treated tumors; assay type: in vivo, mouse; settings: IFNg and TNFa on CD8+ T cells
# Procedure: For initial in vivo studies with SmABHI. SEMA7A OE E0771 mouse mammary carcinoma cells were injected into mice. Twenty days after carcinoma cells were injected. SmAbH1 (e.g., 12 ug) was administered intraperitoneally to the mice every three days until day 36 post-carcinoma cell injection. Tissues were collected at day 36. Tumors, lungs, and LNs were harvested and processed for IHC and flow cytometry to determine the effect of SEMA7A mAb therapy on cells of the tumor microenvironment (TME). In an additional experiment, tumors were treated at day 28 post-injection with a novel SEMA7A directed antibody, monoclonal antibody clone H1. Fully regressed tumors were removed from treatment at day 50) and the animals were re-challenged with an additional tumor inoculation at day 90 to assess SEMA7A mAb effects. […]
# Tumors were separated from the mammary gland and placed in six-well plates with 2 mL of Click's media without mercaptoethanol or L-glutamine (Irvine Scientific, Santa Ana, CA), where they were minced with scalpels, digested with 500 units/ml collagenase type II and IV and 20 μg/ml DNase (Worthington Biochemical Corporation, Lakewood, NJ) and incubated for 1 h at 37° C. […] Geometric mean fluorescence intensity (gMFI) was calculated with FlowJo software. […] Cells were then stained with CD8, CD45, CD4, Gating was determined based on unstimulated controls. […]
# SSM2 cells = experiment: Cell viability, crystal violet, 48 h; assay type: cell-based, mouse; settings: SSM2, 500 nM SmAbH1 vs 8 nM Fulvestrant
# Procedure: For proliferation assays, cells were plated at 2000 cells per well of a 96-well dish. Four pictures of different regions in each well were taken every four hours for 48 h using an IncuCyte ZOOM (Essen BioScience, Ann Arbor, MI, USA). Percent confluence was determined using the IncuCyte ZOOM software (Essen BioScience). 66cl4 Sema7A DDK cells were plated in a 96-well plate in triplicate at 1,500 cells/well. They sat down over 24 hours and then were treated with 1000 nM IgG control, 10 nM SmAbH1, 100 nM SmAbH1, 200 nM SmAbH1, 500 nM SmAbH1, or 1000 nM SmAbH1. The plate was promptly transferred to the IncuCyte where photos were taken and analyzed every 4 hours for 7 days. For additional treatment studies in MCF7, TC11 and SSM2 cells ([…]) were plated in a 24-well plate in complete media and allowed to sit down over 24 hours. At 24 hours after plating, cells were treated with 500 nM IgG control, 500 nM SmAbH1, 8 nM Fulvestrant or the combination. The plate was incubated at 37 C for 48 hours, then fixed with 10% NBF and stained with crystal violet.
# [2] = tested on: human breast cancer MCF7A SEMA7A overexpressing cells; experiment: Immunofluorescence labeling of TAPI-1 treated SEMA7A overexpressing cells; assay type: cell-based; settings: antibody 250:1, FITC secondary, cells treated with TAPI-1
# Procedure: In another exemplary method, the ability of anti-SEMA7A monoclonal antibodies to bind and label cells was tested. In an exemplary method, human breast cancer MCF7A SEMA7A overexpressing cells were treated with TAPI-1, a TACE/ADAM17 inhibitor that blocks SEMA7A shedding from the cell surface, and then incubated with an anti-SEMA7A monoclonal antibody (250:1) before visualization with a FITC secondary antibody (1000:1).
# Cells were fixed with 2% PFA or 1:1 acetone-methanol for 30 minutes at 4C, before washing once with PBS and blocking with 1% BSA in PBST for 1 hour at room temperature. After removal of the blocking solution, cells were incubated in primary antibody in 1% BSA in PBST overnight at 4° C. The primary antibody (SmAbH1 (lot 022823) was prepared at a 1:250 concentration by adding 4 μL stock solution to ImL 1% BSA in PBS. After primary removal cells were washed with PBS for 10 min×3 and incubated in secondary antibody in 1% BSA in PBS for 1-2 hours at room temperature (covered from light). The secondary antibody (Donkey anti-Mouse IgG Alexa Fluor 488 (Invitrogen A-21202)) was prepared at 1:1000 concentration by adding 1 μL into ImL 1% BSA in PBS. After removal of secondary antibody cells were washed with PBS for 10 min×3. VECTASHIELD Antifade Mounting Medium with DAPI (Vector Labs H-1200-10) was added and the cells were sealed with a glass coverslip. […]
molecule,measurement,setting,value
B1,activated T cells in the tumors,[1],increased presence of activated T cells
same,cell viability compared to fulvestrant,SSM2 cells,more significantly reduced
same,labeling of cells,[2],labeled the cell lines treated with TAPI-I
